A word on the stoichiometry N: it is the number of molecules, sites or subunits per partner or assembly.

In the experiment the target is Ikoma lyssavirus glycoprotein ectodomain (IKOV-G-ecto) (Ikoma lyssavirus (IKOV)). The experiment can be described thus: crystal structure.

In turn, “Ikoma lyssavirus glycoprotein ectodomain (IKOV-G-ecto) (domain or fragment)” gave a stoichiometry N of 3.

For the origin of these results see paper PMC11864512.
